Results taken from US20230087570A1 (NATIONAL CANCER CENTER, published 2023).

Molecular target: T1, mouse TIM-3 expressed on cells (mouse, UniProt Q8VIM0 20-281)
T1 construct: whole, on cells; also called mTIM-3
Assay: flow cytometry on mouse primary glial cells (FIG. 7 legend)
Description: FACS analysis was performed to determine whether the selected antibody, hTIM-3_NCC1, specifically binds to mouse TIM-3 as well as human TIM-3.
Specifically, 0.5 μg of hTIM-3_NCC1 antibody was reacted to mouse primary glial cells for 30 minutes, and then stained with a secondary antibody (APC-human IgG Fc; Biolegend, cat #409305). In addition, mouse CD11b⁺ cells overexpressing mouse TIM-3 (3×10⁵ cells) were separated using a-BV421-conjugated anti-CD11b antibody (BD, cat #562605) and then 0.5 μg of hTIM-3_NCC1 antibody and PE-conjugated anti-mouse were reacted for 30 minutes. These cells were surface-stained with a secondary antibody (APC-Human IgG Fc) and then measured by flow cytometry.

T1 sequence (Q8VIM0 20-281): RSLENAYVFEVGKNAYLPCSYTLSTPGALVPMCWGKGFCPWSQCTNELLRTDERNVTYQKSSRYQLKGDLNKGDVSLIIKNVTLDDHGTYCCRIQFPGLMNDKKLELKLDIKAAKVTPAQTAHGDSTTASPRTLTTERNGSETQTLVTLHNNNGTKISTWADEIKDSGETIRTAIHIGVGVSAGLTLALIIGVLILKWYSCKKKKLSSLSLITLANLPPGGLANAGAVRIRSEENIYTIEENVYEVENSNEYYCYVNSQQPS

B1: hTIM-3_NCC1 (Fc fusion)
scFv: EVQLVESGGGLVQPGGSLRLSCAASGSIFSNGYMTWYRQAPGKGLELVSSINSRGVTNYADSVKGRFTISRDNSKNTLYLQMNSLRAEDTAVYYCAALLPHEIRKYWGQGTQVTVSSGGGSHGGGSGGGSVDDIQMTQSPDSLAVSLGERATINCKSSQSVFYNSNNKNYLGWYQKKPGQPPKLLIFWASTRESGVPDRFSGSGSGTDFTLTISSLQAEDVAVYYCQQYYSTPRTLGGGTKVDIKR
notes: Human scFv from a naive phage library, tested as scFv-hIgG (hIgG1) and detected with anti-human IgG secondary antibodies; also called scFv-TIM3 #4; ScFV-TIM3 #4; not shown: human IgG1 part (named only as 'hscFv-hIgG1')
binding result: binds
